Experimental data reported in the NTF2 design screens of Basanta et al. (2020).

Experiment: protease stability score; higher = more stable; yeast display proteolysis, trypsin and chymotrypsin;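 further: relative to predicted unfolded state with 0 unfolded-like and 1 meaning tenfold more protease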
“DDHERDAERAIKELMHNFETGNEDFLNEMADPNMRVIINGKEHIGWENFRHHLRRVLHELRIKRIHIRQVRVQGEWVNVISEFIGEVDGREHRVETSYILLKVNGRWTLHSMYFE” showed a protease stability score of 2.69. In the case of “SEDKELADRFLNHITHLIRTGDENALSENLDPNTRLHIGDKHYIGWEEFLRIISERWKRADHQDVKLRDSRVQGDKVHLDGEIILIVDGKEIRHDFRIIVYKIDGRWHLESIRIG”, the protease stability score was 2.09. Work on “TEDEKMAEDLLKLILEAMETGDERIFRHLVDPNVRVSQGEKQLHGREAVEEMLKHLRLHRVRIRDVHVVGDKIIVQGEIHGEIGDFRFESHIIVYIHKFNGQWRHKSIEIK” yielded a protease stability score of 1.42. For “SEDHEATHLIVELLERALKTGNERLWKDLFDPNVRIDINGKYFHGREEYVHFFKEWRFHDSRVHVHEVRVNEHELHIHGEVESHVTYNGQHRNLRLETTLFVIKVNGRWLFRHIEVR”, the protease stability score was 1.5. “SEEETDAKIAYHLEYELLKTGDEKMIHENLDPDARFISDVNGVEHRDHGRENFSRSMSEWLKRFGVDHMDIRHVRFFNGKIDMEVEINVNGVRIDLHLHSHKINGQWIITRVDIRID” gave a protease stability score of 1.24. Sequence “DDRERDSREAQEILREILLTGDFKTLYELADPHYRHNWDGRTIHGMETIVKLFLDLGMEIRDMRFRHLEIQGDFIHLDVDINGRINGKEKNVKIRVHARKIDGRWVLHSSERD” has a protease stability score of 1.38. “DEDERERRWIYQLFLYLFITGDFHTLENLFDPHMRLHYGNKEYHGREEVSKTMLKIWRDLGVKYLSLRHFHIEIFNGRVSLHFYGEQDINGVHRDIEFRVDLVKINGKWVIEQIDLRIN” gave a protease stability score of 1.62. “DEEEEIARRITELWLTYMMTGDEDALIHMADPNVKSILIINGRHVHYHGREYWTKMLRDLGFKHTRIRRVDLQGDYSRLDIEDDFNGVYTRSELRLKVVNGRFHTIEINIH” showed a protease stability score of 1.08. For “TEDDEILREALEIWRYVEQTGDEEDTHRMVDPHAKMIFNGKEIHGREHISRWMKEIRIHELRVHSFRVIDGRLILEVELVGRFNGREDTIEVEIISEKVDGRWVVSSLTIR”, the protease stability score was 1.29. Sequence “SEDEEWVRRKVERWIRAFKTGNFEELRRNADPDTRIHINGVNFHGREDFEKFVTELMRRVKNARIDVHRLELQGEFIHSDETEDVNGVEHHVRFTYRKIDGRWSLHSIEFH” has a protease stability score of 1.59. For “SEIDRLSEELARLFLELVITGDFKTLSHLADPTVKSDINGVDLHGREELYRWVEEFYNELRVSWVLDSIEVQGEKAYVKGKLESRVDGQRHTDQYEIILIIVNGRFKEIIVKRR”, the protease stability score was 1.5. For “SEEDKMVEDWLREWIELHLTGDFEQWESLFDPNTRSRAHVGDKRFESHGREQVVEVRHEIKREMRITDIDDKHIRVFNGRADLIGFMRGDINGRHVRLEIHVILVIVNGKRKEEEVRIH”, the protease stability score was 0.155. “DEIDELMEMMARILIRLWQTGDEETWSRLADPDVRVTIGEFHTHGMERALLIIQEIRRHWRIHHIHIHDMRVFENRSRVNGKVDGEIDGQKDVRETRIEVVLIDGRLQEVRVKTK” showed a protease stability score of 0.91. Work on “DEWKRLALEVLRLWEEFMSTGDEKSVEELADPNVRILYDGVQLHGMDEVRRHLKELREHSHHVEIRRATVIDGRVHVDGTLDVTIEIGDKKIREEIRVKIHIIKVNGKWFVHSVEFR” yielded a protease stability score of 1.49. “DKELHIAYHLLKVFEHTLATGDEETSERLLDPDVRFWINGVDFHGWELFSTFMKHARFSFRDSRFHDNRLVNGQINLVGRVRLEIDVDGRRHHTETDVRVVILKVDGRWVIHSMEFK” gave a protease stability score of 1.46. Work on “SEEDEEVRHVLELLIHAWRTGDERLLMHLLDPHAKFIVGDKELHGREQISRVWKELRIEDSDVHSIELVNGRLRLDTHLIITIGDKHVDVKTRELIVKIDGRWVLEFLEVR” yielded a protease stability score of 1.37. Work on “DDRERERHRFLRELHESLETGDERELTRMLDPHARWVVGDKQHHGRETLTKFVSEVALRADHFHIEISRVREQGEFIDIDVRVILIIGDKVITIDQRLINLKVDGRWFLHERIVH” yielded a protease stability score of 1.05. “DEEEKLFHDFASHFVRNFLTGNWDMIKRNADPTVQAHIGDKEIHGWDRIVDHLEERLRKIKGMRHHPRRLVFIGEKTYLDTELHFNGVHVETILIVIVVNGRLKSVEFHIE” showed a protease stability score of 0.695. For “DRLEELVERIAEIFLESYLTGDWKHLFDYFDPHAKLNIDGQESVGRESIQLMLEIHFKRVDHIQHFHRDDHRIQGNKFVFIGTLEGHVNGRTTRSRVKVEVTAVDGRIEELHIHIE”, the protease stability score was 1.23. “SEDEEILREILEETNKALHTGDENHIRHLLDPHVRWHVGDKTIIGRDLLVDILRRMGVKHHEIRLRDMDHVGEKIRLEGELIIRYGDKTETHDVTFVLIKFDGRWHIEEYIHG” showed a protease stability score of 0.866. “DEEEQHSRELAEIYFEIWETGDFHTHKRMMDPNAKLDYNGQTIHGREHIVEYLRHLWERVKGVRFHLDSVHLQGDWLHIRGTLQVDGQHHKVDIHVQIVDGVLHEEHIRVR” gave a protease stability score of 1.53. With “DDSDEHTKRATDELRHNLRTGDEERILKLVDPNARIDINGVKVIGWHMVEELVRKFWEEMRVEELEIHDMKVYGDKAIVDGYVEQRQGNKFIYIKTEIIKVKIDGRWILTELRFR” the protease stability score was 0.57. Sequence “SEHEKFSEKYFQIWVRAVRTGDEDTLRELIDPDDRLDVNGQNFHGWEQVNEHLLHFIRKIKNVRIEVHLEHHEVQGDKIHLDMTLHLNVDGRETRHKTEIIARKIDGRWVFTEFRIK” has a protease stability score of 2.26. In the case of “SEEEKEAERMLRLWIETVKTGNEEVWRELFDPNARMLIGDKESVGREQIEELVRSVYDRLGAKVIHDFYIDRIHVIGDKVEIDSRVDSIINGRRYHLETHIIFVKINGKWVLKSVELR”, the protease stability score was 2.06. In the case of “SEDEWWARYVTKLLIHSMKTGDEDLLHELADPSTKLDVGDKRYHGREEFRRLMRELRERADHLTISIKHIEVQGDKVDLDMHIRLEYGDKFIELRVHIHVEKVNGQWRLREREER”, the protease stability score was 0.879. In the case of “SEDEEEIKTTFENLDRSIRTGDEDHVRKLADPTMRLDWNGQEFHGREWFSKHLSEFVKRADHFEIRLHDLDMVNGKLHIDGQLILIINGRTQILKLHLVFIKVDGRWILDNVQVN”, the protease stability score was 1.04. Work on “DDERRDTKLAIDLWVETWHTGDEQMFEDLADPHTRIIIGDKEHVGREEAVRYSSELIRRLGANHVDVTFRETRMYNGRIDVKGEINLHIGDKDHHREVHVYSRKIDGRWVLERIEFR” yielded a protease stability score of 1.3. With “DEETEIVERYERILVKALTTGDWRRIERLMDPNVKSVVNGREYHGMERYLELYRRIRSEIRINDLRIHKVTEVGNKIEAITVWHVEVDGRIEDLETRVFLRKIDGRWILEREEVA” the protease stability score was 0.827. For “DDLDRYAEEAEKRHYENLETGDENRLQENADPHTRMDFNGRKFHGMDHNYHWMRKIREDLGVDNIRIHIHHMSVVDGVLHLDLIIRYGDKELRLHFVSEKINGRWRLKEVYYK”, the protease stability score was 0.855. “DDEERDVLRIMRIVLKLWKTGNEEKYEHLLDPDVRMEVDGRNLHGRETVSHWLHRLREEIRIDDYKIETVRAQGNKSILHVRTDGIINGQEVRLTEEITIIVINGRIQTFSIHRH” showed a protease stability score of 0.628. For “TDEEELLHRILDEIEKALLTGDEDIIHRLFDPHVRFHVNGRHIVGRHEWSRWVNDHRKRFKNIQIRMRVEEKDVIDGRMHSRTKLHIIFNGVRYEITQEINIDVIDGRLKNVIVHDE”, the protease stability score was 0.725. Sequence “HEEEEEVKEALKELKELLETGDEDLWRRLADPDTRFELEFEGRHFHLHGWEAVLHFIREIKRRFKNVQFDWKRLNTQGNFAHMHVEIRVGDKIIHLDIIVLKYNGQWLDKRVRIFFE” has a protease stability score of 1.91. In the case of “HEMEEMEELAFRLIEESIRTGDFTTLEDLFDPDTRIIIGDKDLHGREALRHLRERIDHLKELRVHRRTFIGDWLDMNLHMTGNVNGVEHRRDVRFIIWKINGQWRIHSVYEV”, the protease stability score was 1.38. With “SEVEKHLHNVIELYIRALRTGDEERLRKLLDPHVRVRIGDKHLHGREDWWQHVTRYDHESVHDLKIDHVRVVGNKIEMIITHDIIIIVNGVNLRHSIETEVHARKVDGVWYLTELHHG” the protease stability score was 0.075. With “DEIQRLMKYVFEEWVKWFLTGDEEKFNKMVDPDVRLIVNGQHSHGREKANEMWEIYYERFDYIHEFRVHSIRIQGDKVHVDVRLIGRQGDKTIDTRTEIHLVIIDGRIKRAEVRVE” the protease stability score was 2.62. For “SEDERFWKKALDDLLDTIRTGDEHKFREMMDPNVRVHIGDKHFHGREQASEQVVRLGVDHIELRRVDFQGDYLEIHGHLRVNGRETRIHFVLLKIDGRWVVKEVRQE”, the protease stability score was 2.21. Sequence “DEHERLLIKIARIITNLLLTGDEDIMEELADPNVRFELDFNGVDIHLIGMDFWRHNLEHWWVDHFRLEDVKIQGDYAHLKLNVHMEINGRRHETHTRLSIVVVNGKLKSMRFHLI” has a protease stability score of 1.2. “SEEEEYAREFLERHLHSLKTGDWREEHKQADPEVRLHIGDKEFHGREIFVKIQREILEQADHLRIHIRRVHVQGDFLHIDGELRIRINGREHYIDRKVIVWKFNGRWHLHEVSIE” showed a protease stability score of 1.39. With “DEHEQEANEMMHRSLETLETGDERLLRHMADPNTKVQVGDKTWHGWHLLHEYRKEFRHARIIIREIDIQGEFVFLHGELDVNGKRLERTIIQLKVDGRWILHHMHLR” the protease stability score was 0.435. In the case of “DHQEEEAKEFTELLMRNLFTGDEDSLQEMLDPHVRIEVDIGDKHRHHHGREEISHFLVRLQHELGVDHIRLSHIEVFNGRAEVHIESYIGNKRSENVFVVTKFNGVWRVQRIIIRVE”, the protease stability score was 1.2. For “DDLEHEAHEFVRRFMEDFDTGNEKSFEDLADPNVRLDFDGKRQHGRETVSEWLYRWLYDLGIKHTTLRHVETINGRVHSTAELKVGDKHYDLHVEFKKVDGKWVFQRVYFR”, the protease stability score was 1.11. Sequence “DEEEKEAEDFFHDWVHSMLTGDEDTLRRMIDPHVKIQVGDKEFHGMKWATRMYREIRIEDMRLRRVHVINGKADIHSITHTNINGRQEDIHITIIIEKVDGRWILRSVIIR” has a protease stability score of 2.13. For “DDSERILRWFWNVLAESIETGDEEVMKELFDPNTRIHVNGQDHIGMEHRTRLASEMRITLYRVDLKRIHEVDGRIVLHIEVETHGTINGRLEHSKVRVQIIVSKIDGKWRMHQVEVK”, the protease stability score was 1.38. Sequence “DELEKDLKDAFRILIEEVKTGDFKSMRRNMDPDARIDIGDKHSVGREEAIHLMEIFYKEWRFEHIDLHDFTLIGNKLELDMRVHGNVDGVRTIVIRRVISEKIDGRWLIRTESIE” has a protease stability score of 0.494. In the case of “DEEEELLTRTSELFSHNLHTGDEDSLIHLADPHTRIDVDGVQLHGMETWSEQFSRDMHEHGARSEVHYKRREVVGDKAKIHLVLTITYNGRTIIRNIELRMTKIDGVWILRHISYH”, the protease stability score was 1.26. In the case of “DEEEIHNRLAYRLSHELLETGDWHLMILLADPHVRFEDENHEAHGREEYKEHLNEIHELLGLEKFEVRIHSWRVYDGRVIVHGHILFNGVEFNVETVSLKFNGRWIIEEQRLE”, the protease stability score was 1.36. In the case of “REEERLTRHFAHRLFHSLMTGDEDELTELADPNARSIVDGRTVHGRETMSRIIHHKVRELGVDHNTIEHIEFQGNYVHVHMRIEVGDKTYTSIIHIEKVDGRWLVRSVNLL”, the protease stability score was 0.491. In the case of “DEEHKIIRDFADEFWHWHLTGNFEEIAKNMDPNVRYEIRIGDKVILHIGMEDVERYLREEIHKFKNLTEDLESKHVVGNKLHLDARLNWNGKTVDIHIEIVVVNGRFKTVTIHIR”, the protease stability score was 1.36. Work on “DEHHKHLHHLAEHTLRLIATGDEDRFSDLADPHTRLRVNGVDVIGRELVIELWKRMLEQIRITDVHVKRSVVIDGVVHQDTELHSTVGDKRFELKTKSHIFIINGRIHMVEIQHE” yielded a protease stability score of -0.28. For “DDIEEDVKEFLRLMKEMNETGDEHRLTEMADPNVRVHIGDKHFHGREDAERLWRRADVFHHIKIKEYELQGDKLYMNVEVDGKFDGKRIRHDVTEIVTKVNGRWLLRSIRFD”, the protease stability score was 0.577.
